Laboratory results as given in patent US20090214663A1 (published 2009).

Biological target: T1, mCAT-1 receptor expressed on HEK 293 cells (stable cell line) (mouse, UniProt Q09143 1-622)
T1 construct: whole, on cells
Test: fluorescence microscopy, counting of green fluorescent Mo-NP bound per cell after 2.5 h at 37 C; 120 cells per cell line

T1 sequence (Q09143 whole entry): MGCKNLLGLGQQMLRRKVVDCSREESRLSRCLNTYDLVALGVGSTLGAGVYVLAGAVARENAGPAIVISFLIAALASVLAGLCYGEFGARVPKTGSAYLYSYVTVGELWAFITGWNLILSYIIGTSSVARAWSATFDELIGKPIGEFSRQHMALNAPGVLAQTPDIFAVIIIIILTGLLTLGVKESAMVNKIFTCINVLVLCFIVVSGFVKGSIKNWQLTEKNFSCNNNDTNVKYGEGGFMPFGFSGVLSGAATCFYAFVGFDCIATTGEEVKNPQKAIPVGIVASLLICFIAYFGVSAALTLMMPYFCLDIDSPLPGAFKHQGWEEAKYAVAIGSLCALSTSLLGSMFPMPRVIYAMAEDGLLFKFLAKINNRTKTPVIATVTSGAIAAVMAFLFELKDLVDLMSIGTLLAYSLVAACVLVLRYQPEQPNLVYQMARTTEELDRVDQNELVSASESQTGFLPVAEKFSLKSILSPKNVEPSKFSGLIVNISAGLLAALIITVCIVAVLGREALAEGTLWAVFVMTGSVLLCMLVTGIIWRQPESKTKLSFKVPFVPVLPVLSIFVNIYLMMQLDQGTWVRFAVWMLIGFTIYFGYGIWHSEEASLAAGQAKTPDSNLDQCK

B1: Moloney murine leukemia virus (Mo-MLV) envelope protein, in virus membranes coated onto 100 nm carboxylate-modified fluorescent nanoparticles (Mo-NP) (other)
chain: ASPGSSPHQVYNITWEVTNGDRETVWATSGNHPLWTWWPDLTPDLCMLAHHGPSYWGLEYQSPFSSPPGPPCCSGGSSPGCSRDCEEPLTSLTPRCNTAWNRLKLDQTTHKSNEGFYVCPGPHRPRESKSCGGPDSFYCAYWGCETTGRAYWKPSSSWDFITVNNNLTSDQAVQVCKDNKWCNPLVIRFTDAGRRVTSWTTGHYWGLRLYVSGQDPGLTFGIRLRYQNLGPRVPIGPNPVLADQQPLSKPKPVKSPSVTKPPSGTPLSPTQLPPAGTENRLLNLVDGAYQALNLTSPDKTQECWLCLVAGPPYYEGVAVLGTYSNHTSAPANCSVASQHKLTLSEVTGQGLCIGAVPKTHQALCNTTQTSSRGSYYLVAPTGTMWACSTGLTPCISTTILNLTTDYCVLVELWPRVTYHSPSYVYGLFERSNRHKREPVSLTLALLLGGLTMGGIAAGIGTGTTALMATQQFQQLQAAVQDDLREVEKSISNLEKSLTSLSEVVLQNRRGLDLLFLKEGGLCAALKEECCFYADHTGLVRDSMAKLRERLNQRQKLFESTQGWFEGLFNRSPWFTTLISTIMGPLIVLLMILLFGPCILNRLVQFVKDRISVVQAL
notes: Native env in virus membranes released by osmotic shock and sonication, then extruded over nanoparticles; In the β-lactamase experiments the particle core also carried covalently coupled B. cereus penicillinase; also called Mo-nanoparticles; Mo env-coated nanoparticles
- fold more Mo-NP bound than by cells lacking the receptor: 26 fold
